Assays:
[1] = target: Tau217-234 phospho-peptide (pT217/pT220/pT231) (human); experiment: BLI
[2] = target: Tau225-240 phospho-peptide (pT231) (human); experiment: BLI
[3] = target: tPeptide 5 (204-222) (human); experiment: one point ELISA
[4] = target: Tau204-222 phospho-peptide (pS214) (human); experiment: one point ELISA
[5] = target: Tau204-222 phospho-peptide (pS214/pT217) (human); experiment: one point ELISA
[6] = target: Tau204-222 phospho-peptide (pT212) (human); experiment: one point ELISA
[7] = target: Tau204-222 phospho-peptide (pT212/pS214) (human); experiment: one point ELISA
[8] = target: Tau204-222 phospho-peptide (pT212/pS214/pT217) (human); experiment: one point ELISA
[9] = target: Tau204-222 phospho-peptide (pT212/pT217) (human); experiment: one point ELISA
[10] = target: Tau204-222 phospho-peptide (pT217) (human); experiment: one point ELISA
[11] = target: Tau191-214 phospho-peptide (pS199) (human); experiment: one point ELISA
[12] = target: Tau191-214 phospho-peptide (pS199/pS202) (human); experiment: one point ELISA
[13] = target: Tau191-214 phospho-peptide (pS199/pS202/pT205) (human); experiment: one point ELISA
[14] = target: Tau191-214 phospho-peptide (pS199/pT205) (human); experiment: one point ELISA
[15] = target: Tau191-214 phospho-peptide (pS202) (human); experiment: one point ELISA
[16] = target: Tau191-214 phospho-peptide (pS202/pT205) (human); experiment: one point ELISA
[17] = target: Tau191-214 phospho-peptide (pT205) (human); experiment: one point ELISA
[18] = target: pS199-old (SCBio-4PEG-Peptide, Tau191-214) (human); experiment: one point ELISA
[19] = target: AT8 peptide (amino acids 195-215 of tau) (human); experiment: BLI (Octet), phospho-peptide on streptavidin tips
Chain of AT8 peptide (amino acids 195-215 of tau) (human) (peptide, as listed by the source): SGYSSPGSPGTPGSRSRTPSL

Chain of Tau191-214 phospho-peptide (pS202/pT205) (human) (peptide, as listed by the source): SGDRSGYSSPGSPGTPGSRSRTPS

## AT180 (antibody)
[1]
  Kd: 5 pM
[2]
  Kd: 6 pM

## IPN002-hIgG1 (antibody)
[3]
  OD (450 nm): 0.281 OD450

## PT3-hIgG1 (antibody)
[4]
  OD (450 nm): 3.14 OD450
[5]
  OD (450 nm): 3.13 OD450
[6]
  OD (450 nm): 3.16 OD450
[7]
  OD (450 nm): 3.14 OD450
[8]
  OD (450 nm): 3.17 OD450
[9]
  OD (450 nm): 3.16 OD450
[10]
  OD (450 nm): 3.13 OD450
[3]
  OD (450 nm): 2.81 OD450

## anti-tau antibody AT8 (ThermoFisher, Waltham, MA)
[11]
  OD (450 nm): 0.056 OD450
[12]
  OD (450 nm): 2.39 OD450
[13]
  OD (450 nm): 3.07 OD450
[14]
  OD (450 nm): 0.139 OD450
[15]
  OD (450 nm): 0.058 OD450
[16]
  OD (450 nm): 2.94 OD450
[17]
  OD (450 nm): 0.065 OD450
[18]
  OD (450 nm): 0.056 OD450
[19]
  Kd: 309 pM

## anti-tau antibody AT100 (ThermoFisher, Waltham, MA)
[4]
  OD (450 nm): 0.065 OD450
[5]
  OD (450 nm): 0.067 OD450
[6]
  OD (450 nm): 0.069 OD450
[7]
  OD (450 nm): 0.071 OD450
[8]
  OD (450 nm): 0.187 OD450
[9]
  OD (450 nm): 0.069 OD450
[10]
  OD (450 nm): 0.068 OD450

## hIgG1 isotype control (antibody)
[11]
  OD (450 nm): 0.058 OD450
[12]
  OD (450 nm): 0.062 OD450
[13]
  OD (450 nm): 0.245 OD450
[14]
  OD (450 nm): 0.09 OD450
[15]
  OD (450 nm): 0.055 OD450
[16]
  OD (450 nm): 0.249 OD450
[17]
  OD (450 nm): 0.054 OD450
[4]
  OD (450 nm): 0.061 OD450
[5]
  OD (450 nm): 0.059 OD450
[6]
  OD (450 nm): 0.06 OD450
[7]
  OD (450 nm): 0.059 OD450
[8]
  OD (450 nm): 0.053 OD450
[9]
  OD (450 nm): 0.057 OD450
[10]
  OD (450 nm): 0.083 OD450
[18]
  OD (450 nm): 0.06 OD450
[3]
  OD (450 nm): 0.141 OD450

— patent publication US20250243263A1
